In this assay the target is cyclophilin A, N-terminally His- and FLAG-tagged fusion protein (UniProt P62937). Nature of the assay: SPR (Biacore S51); 1 uM cyclosporin A injected for 1.5 minutes over Cyph immobilized (approx. 3,400 RU) on an NTA sensor chip. In general terms: SPR reads the build-up and loss of mass on a sensor chip optically.

Consider 1 substance from patent US20090098568A1.

Sequence of UniProt P62937 (P62937 other isoform, or with tags, fused parts or gaps limits assumed): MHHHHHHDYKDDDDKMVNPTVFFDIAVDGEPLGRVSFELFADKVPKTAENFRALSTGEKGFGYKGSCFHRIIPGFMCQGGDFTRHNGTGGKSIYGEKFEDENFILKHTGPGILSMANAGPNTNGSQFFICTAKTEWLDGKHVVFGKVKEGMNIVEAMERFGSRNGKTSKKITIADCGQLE

Consider Cyclosporin A (peptide), for which the response (RU) is 43 RU.
